For one molecule, Kd results are on record in patent publication US20220332804A1 (CSL INNOVATION, published 2022).

Holding throughout (assay): SPR, mAb captured, C2 mutant analyte;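 note: Anti-C2 mAbs captured on goat anti-human IgG Biacore CM5 chips, alanine or serine C2 surface mutants flowed over at 37 °C, double-referenced sensorgrams fitted to a 1:1 binding model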
The target of one assay is T1, human C2 G414A (human, UniProt P06681 21-752).
T1 sequence: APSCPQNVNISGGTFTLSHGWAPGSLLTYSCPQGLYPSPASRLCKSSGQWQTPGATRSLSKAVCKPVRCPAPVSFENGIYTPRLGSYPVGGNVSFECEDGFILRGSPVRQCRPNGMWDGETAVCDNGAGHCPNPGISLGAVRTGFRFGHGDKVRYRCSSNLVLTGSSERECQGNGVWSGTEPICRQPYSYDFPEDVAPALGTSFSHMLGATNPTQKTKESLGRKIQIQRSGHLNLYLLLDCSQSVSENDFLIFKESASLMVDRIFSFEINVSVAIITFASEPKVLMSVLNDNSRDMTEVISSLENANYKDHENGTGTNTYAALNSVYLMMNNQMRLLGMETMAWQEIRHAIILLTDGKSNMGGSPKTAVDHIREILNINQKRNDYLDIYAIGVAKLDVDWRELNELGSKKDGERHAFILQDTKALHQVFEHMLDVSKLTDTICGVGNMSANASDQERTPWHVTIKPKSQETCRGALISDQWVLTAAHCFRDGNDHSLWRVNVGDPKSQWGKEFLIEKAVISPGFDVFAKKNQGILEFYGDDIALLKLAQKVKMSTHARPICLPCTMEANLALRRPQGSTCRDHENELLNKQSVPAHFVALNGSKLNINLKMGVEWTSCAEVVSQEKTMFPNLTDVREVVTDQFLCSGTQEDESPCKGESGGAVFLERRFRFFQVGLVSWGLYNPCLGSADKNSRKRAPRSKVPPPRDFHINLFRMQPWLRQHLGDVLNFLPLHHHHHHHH

The next assay addresses T2, human C2 L439A (human, UniProt P06681 21-752).
T2 sequence: T1 sequence with A394G, L419A

A further assay deals with T3, human C2 A472S (human, UniProt P06681 21-752).
T3 sequence: T1 sequence with A394G, A452S

Another assay has as its target T4, human C2 R519A (human, UniProt P06681 21-752).
T4 sequence: T1 sequence with A394G, R499A

Changes are numbered by the printed parent chain.

B1: RF16-214 (antibody, V domains shown)
VH: EVQLLESGGGLVQPGGSLRLSCAASGFTFSWYQMMWVRQAPGKGLEWVSRIYPSGGGTAYADSVKGRFTISRDNSKNTLYLQMNSLRAEDTAVYYCARDAGYGDNWGQGTLVTVSS
VL: QSALTQPPSVSVSPGQTASITCSGDKLGEKYASWYQQKAGQSPVMVIYQDRKRPSGIPERFSGSNSGNTATLTISGTQAMDEADYYCQAWDTRAVVFGGGTKLTVLG
With B1, the Kd came out at 14.8 nM with human C2 G414A, 1320 nM with human C2 L439A, 234 nM with human C2 A472S and 40 nM with human C2 R519A.
